Experimental data taken from patent publication US20190256588A1 (BEIJING HANMI PHARM, published 2019).

Tests used:
Test in all cases: ELISA, cytokine coated on plate at 1 µg/mL
recombinant human IL-6 = recombinant human IL-6 (human, UniProt P05231 30-212)
Method: (§1) Recombinant human IL-17A, IL-17B, IL-17C, IL-17D, IL-17E, IL-17F, IL-1, IL-2, IL-6, IL-8, IL-21, IL-22, IL-23, IFN-g and TNFα (purchased from Sino Biological Inc. or R&D systems) were coated on a 96-well high-absorbing ELISA plate with a carbonate buffer solution with pH 9.6, the coating concentration was 1 μg/mL, the coating amount was 100 μL per well, and the coating was carried ax 4° C. out overnight. The plate was washed five times with PBST and blocked with 300 μL/well of PBST containing 1% BSA and incubated at 25° C. for 1 hour. The plate was washed five times with PBST. […] The plate was washed five times with PBST. Then, horseradish peroxidase-labeled anti-human IgG antibody (Chemicon, Catalog Number AP309P) 1:2000 diluted in PBST containing 1% BSA was added, 100 μL was added to each well, incubated at 25° C. for 1 hour. The plate was washed five times with PBST. 100 μL/well of colorimetric substrate TMB was added and incubated at room temperature for 10 minutes. Color development was terminated by adding 100 μL/well of 1 M H₂SO₄. The absorbance at 450 nm was read on a microplate reader.
(§2) Recombinant human IL-17A, IL-17B, IL-17C, IL-17D, IL-17E, IL-17F, IL-1, IL-2, IL-6, IL-8, IL-21, IL-22, IL-23, IFN-g and TNFα (purchased from Sino Biological Inc. or R&D systems) were coated on a 96-well high-absorbing ELISA plate with a carbonate buffer solution with pH 9.6, the coating concentration was 1 μg/mL, the coating amount was 100 μL per well, and the coating was carried at 4° C. out overnight. Washed five times with PBST. Blocked with 300 μL/well of PBST containing 1% BSA and incubated at 25° C. for 1 hour. Washed five times with PBST.

recombinant human IL-23 = molecular target: T1, recombinant human IL-23 (human, UniProt Q9NPF7 20-189; P29460 23-328)
T1 sequence (looked up) 1: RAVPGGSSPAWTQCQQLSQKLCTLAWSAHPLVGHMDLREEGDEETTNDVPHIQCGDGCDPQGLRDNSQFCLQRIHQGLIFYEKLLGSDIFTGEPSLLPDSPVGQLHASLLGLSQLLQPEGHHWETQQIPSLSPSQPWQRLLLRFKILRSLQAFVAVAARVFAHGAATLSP
T1 sequence (looked up) 2: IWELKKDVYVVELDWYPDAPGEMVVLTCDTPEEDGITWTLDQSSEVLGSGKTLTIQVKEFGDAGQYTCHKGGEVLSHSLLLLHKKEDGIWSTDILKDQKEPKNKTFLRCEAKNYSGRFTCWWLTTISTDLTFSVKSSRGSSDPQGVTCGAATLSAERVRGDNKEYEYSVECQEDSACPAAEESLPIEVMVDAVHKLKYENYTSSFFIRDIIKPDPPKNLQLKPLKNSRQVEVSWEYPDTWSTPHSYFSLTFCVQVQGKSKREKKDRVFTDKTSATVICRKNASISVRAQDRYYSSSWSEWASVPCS
Method: as §1, §2

recombinant human IFN-g = molecular target: T2, recombinant human IFN-g (human, UniProt P01579 24-166, limits assumed)
T2 sequence (looked up): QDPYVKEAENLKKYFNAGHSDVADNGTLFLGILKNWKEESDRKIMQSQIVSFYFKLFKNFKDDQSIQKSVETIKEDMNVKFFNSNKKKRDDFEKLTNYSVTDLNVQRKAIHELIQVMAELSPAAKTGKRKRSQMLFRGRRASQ
Method: as §1, §2

recombinant human IL-2 = recombinant human IL-2 (human, UniProt P60568 21-153)
Method: as §1, §2

recombinant human IL-17F = molecular target: T3, recombinant human IL-17F (human, UniProt Q96PD4 31-163)
T3 sequence (looked up): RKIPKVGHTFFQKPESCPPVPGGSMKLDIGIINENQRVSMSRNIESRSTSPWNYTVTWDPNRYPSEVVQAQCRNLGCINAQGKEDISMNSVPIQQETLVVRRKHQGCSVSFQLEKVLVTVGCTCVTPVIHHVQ
Method: as §1, §2

recombinant human IL-22 = molecular target: T4, recombinant human IL-22 (human, UniProt Q9GZX6 34-179)
T4 sequence (looked up): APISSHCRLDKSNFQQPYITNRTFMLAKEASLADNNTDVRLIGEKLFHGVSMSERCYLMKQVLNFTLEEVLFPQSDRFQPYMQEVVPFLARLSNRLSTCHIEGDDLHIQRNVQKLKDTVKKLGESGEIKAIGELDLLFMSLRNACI
Method: as §1, §2

recombinant human IL-17B = molecular target: T5, recombinant human IL-17B (human, UniProt Q9UHF5 21-180)
T5 sequence (looked up): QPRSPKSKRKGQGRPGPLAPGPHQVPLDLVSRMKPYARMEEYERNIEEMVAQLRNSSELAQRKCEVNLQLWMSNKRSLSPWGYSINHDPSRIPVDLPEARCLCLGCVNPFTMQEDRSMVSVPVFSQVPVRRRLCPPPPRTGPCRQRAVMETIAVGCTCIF
Method: as §1, §2

recombinant human IL-17E = molecular target: T6, recombinant human IL-17E (human, UniProt Q9H293 33-177)
T6 sequence (looked up): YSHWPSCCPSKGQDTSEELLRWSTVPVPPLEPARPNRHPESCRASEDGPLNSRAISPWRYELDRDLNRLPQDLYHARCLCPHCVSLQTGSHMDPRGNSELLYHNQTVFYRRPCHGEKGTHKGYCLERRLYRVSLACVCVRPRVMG
Method: as §1, §2

recombinant human IL-17D = molecular target: T7, recombinant human IL-17D (human, UniProt Q8TAD2 16-202, limits assumed)
T7 sequence (looked up): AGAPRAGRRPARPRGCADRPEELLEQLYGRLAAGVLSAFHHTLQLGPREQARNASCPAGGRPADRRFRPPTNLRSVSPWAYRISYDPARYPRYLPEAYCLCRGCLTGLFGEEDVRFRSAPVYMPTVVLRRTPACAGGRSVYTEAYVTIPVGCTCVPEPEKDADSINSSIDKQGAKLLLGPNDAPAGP
Method: as §1, §2

recombinant human IL-21 = recombinant human IL-21 (human, UniProt Q9HBE4 32-162, limits assumed)
Method: as §1, §2

Measured: binding result

Chain of recombinant human IL-2 (P60568 21-153 limits assumed): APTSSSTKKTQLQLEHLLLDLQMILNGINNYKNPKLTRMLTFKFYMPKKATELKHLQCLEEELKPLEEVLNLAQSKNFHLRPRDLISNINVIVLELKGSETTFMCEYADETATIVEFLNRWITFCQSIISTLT
Chain of recombinant human IL-6 (P05231 30-212 limits assumed): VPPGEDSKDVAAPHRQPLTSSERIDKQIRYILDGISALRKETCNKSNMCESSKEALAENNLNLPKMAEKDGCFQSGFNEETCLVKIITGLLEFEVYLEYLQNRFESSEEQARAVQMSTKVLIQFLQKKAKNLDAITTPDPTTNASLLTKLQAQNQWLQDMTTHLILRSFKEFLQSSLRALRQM
Chain of recombinant human IL-21 (Q9HBE4 32-162 limits assumed): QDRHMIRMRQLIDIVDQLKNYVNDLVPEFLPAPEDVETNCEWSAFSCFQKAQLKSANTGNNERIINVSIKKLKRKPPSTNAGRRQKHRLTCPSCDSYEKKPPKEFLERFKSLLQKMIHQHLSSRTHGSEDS

B1: anti-human IL-17A chimeric monoclonal antibody (antibody, human IgG1, kappa, V domains shown)
VH: DVQVQESGPGLVKPSQSLSLTCTVTGNSITSYYAWNWIRQFPGNKLEWMGYITYSGTTSYNPSLKSRISITRDTSKNQFFLQLNSVTTEDTATYYCAREEYDDIYAVDYWGQGTSVTVSS
VL: IIVMTQTPLSLPVSLGDQASISCRSSQSLVHSNGNTYLHWYLQKPGQSPKLLIYKVYNRFSGVPDRFSGSGSGTDFTLKISRVEAEDLGVYFCSQSTHFPTFGGGTKLEIKR
notes: expressed in 293F cells; also called Anti-human IL-17A Chimeric Antibody; chimeric anti-human IL-17A monoclonal antibody
no binding: recombinant human IL-6 | recombinant human IL-23 | recombinant human IFN-g | recombinant human IL-2 | recombinant human IL-17F | recombinant human IL-22 | recombinant human IL-17B | recombinant human IL-17E | recombinant human IL-17D | recombinant human IL-21
